Assay results as given in article doi:10.1101/2023.10.23.563687.

Molecular target: full-length BCL6 construct overexpressed in HEK293T cells (ternary complex nanoBRET) (UniProt P41182)

Sequence of full-length CDK9 construct overexpressed in HEK293T cells (ternary complex nanoBRET) (P50750 whole entry, one chain of several): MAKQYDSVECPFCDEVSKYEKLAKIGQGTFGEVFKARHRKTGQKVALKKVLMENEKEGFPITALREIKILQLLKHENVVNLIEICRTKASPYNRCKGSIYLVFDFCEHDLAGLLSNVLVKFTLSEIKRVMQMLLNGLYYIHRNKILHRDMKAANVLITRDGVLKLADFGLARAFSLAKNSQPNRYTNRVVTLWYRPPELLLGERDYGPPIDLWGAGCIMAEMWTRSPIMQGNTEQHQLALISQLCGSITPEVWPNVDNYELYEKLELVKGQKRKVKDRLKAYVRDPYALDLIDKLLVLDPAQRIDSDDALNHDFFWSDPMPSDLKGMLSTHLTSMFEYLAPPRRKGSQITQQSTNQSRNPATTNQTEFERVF

Substance: full-length CDK9 construct overexpressed in HEK293T cells (ternary complex nanoBRET) (from UniProt P50750 1-372) (enzyme)
- cell killing of SUDHL5 DLBCL cells by CDK-TCIP1, 72-hour cell viability assay: 6.9 nM
